Experimental data reported in the supplement of paper PMC11136658.

System: peptide library, one residue held at a place counted from the Y acceptor
Experiment: relative phosphorylation of the sub-library (ratio to the mean residue at this position); higher = residue favoured
In short: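 Each value expresses phosphorylation relative to the mean randomized residue. Purified recombinant kinases acted for 90 min in 384-well plates on biotinylated Tyr-centred peptide library mixtures, with one residue fixed at one position from −5 to +5, in the presence of 50 μM ATP with γ-32P-ATP. Signals were read by phosphorimaging after capture on streptavidin membranes, then normalized per position to the sum of the 18 randomized residues (16 in the Ser/Thr-free library) and multiplied by that number.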

Sequence of EPHB4, construct: aa561-end, human (P54760 561-987, looked up): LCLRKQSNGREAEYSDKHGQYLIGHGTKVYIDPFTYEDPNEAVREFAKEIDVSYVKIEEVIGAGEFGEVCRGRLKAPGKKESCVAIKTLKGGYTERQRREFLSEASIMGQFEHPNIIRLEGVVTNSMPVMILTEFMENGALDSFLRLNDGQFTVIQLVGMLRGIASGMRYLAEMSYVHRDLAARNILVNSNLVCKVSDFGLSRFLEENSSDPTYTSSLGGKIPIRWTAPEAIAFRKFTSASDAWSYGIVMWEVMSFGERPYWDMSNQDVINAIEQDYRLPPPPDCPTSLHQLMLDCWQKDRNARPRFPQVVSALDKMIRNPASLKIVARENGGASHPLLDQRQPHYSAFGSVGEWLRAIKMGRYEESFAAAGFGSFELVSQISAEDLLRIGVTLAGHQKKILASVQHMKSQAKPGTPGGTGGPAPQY
Sequence of ERBB4, construct: aa682-993, human (Q15303 682-993, looked up): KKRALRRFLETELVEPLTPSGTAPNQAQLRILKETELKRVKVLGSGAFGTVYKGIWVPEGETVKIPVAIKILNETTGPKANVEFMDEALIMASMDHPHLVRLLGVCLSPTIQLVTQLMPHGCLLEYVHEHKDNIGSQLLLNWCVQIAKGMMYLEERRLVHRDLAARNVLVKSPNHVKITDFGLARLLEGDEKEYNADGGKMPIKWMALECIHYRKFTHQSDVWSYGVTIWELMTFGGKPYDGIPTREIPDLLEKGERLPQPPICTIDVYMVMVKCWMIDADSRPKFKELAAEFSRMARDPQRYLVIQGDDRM

EPHB4, construct: aa561-end, human (from UniProt P54760)
relative phosphorylation
Conditions	at +1	at +2	at +3	at +4	at +5	at -1	at -2	at -3	at -4	at -5
A fixed	2.01	0.93	0.981	0.836	0.988	0.59	1.26	0.954	1.17	1.05
D fixed	0.98	0.854	0.481	0.969	1.18	2.38	1.15	1.32	1.09	1.12
E fixed	2.09	1.19	0.409	1	0.934	1.38	1.07	1.52	1.14	0.945
F fixed	0.651	1.15	1.06	1.01	0.879	0.933	0.628	1.16	0.904	0.895
G fixed	1.03	0.54	0.694	1.16	1.22	0.36	1.17	0.986	1.39	1.38
H fixed	0.482	0.782	1.08	1.16	0.89	0.577	0.911	0.93	0.941	0.998
I fixed	1.02	1.19	1.47	0.663	0.675	1.91	0.772	0.996	0.965	0.775
K fixed	0.404	0.755	0.464	0.907	0.959	0.357	0.99	0.674	0.953	1.05
L fixed	0.774	0.955	1.49	0.792	0.77	1.77	0.834	0.82	0.797	0.838
M fixed	1.36	0.914	1.25	0.969	0.934	0.806	0.722	0.8	0.962	0.949
N fixed	0.489	1.05	0.698	0.947	1.03	2.07	1	1.13	0.889	1.03
P fixed	0.319	0.821	1.46	1.29	1.45	0.513	1.6	1.21	1.35	1.27
Q fixed	1.35	1.03	0.884	1.04	1.02	0.501	1.13	0.863	1.12	0.907
R fixed	0.455	1.08	0.624	1.14	1.13	0.389	1	0.871	0.989	1.17
S fixed	1.05	0.937	0.945	0.974	1.18	0.572	1.57	1	0.915	0.953
T fixed	0.833	1.1	0.832	0.984	1.05	1.08	0.863	0.843	0.696	0.905
V fixed	1.75	1.37	1.73	0.792	0.716	1.04	0.758	0.825	0.874	0.8
W fixed	0.957	1.36	1.45	1.36	0.991	0.773	0.567	1.1	0.859	0.97
pThr fixed	1.45	1.7	0.467	0.855	0.682	1.61	0.917	0.96	0.855	0.898
pTyr fixed	1.36	3.59	0.719	0.965	1.04	2.25	0.931	1.17	1.08	1.11

ERBB2, construct: aa676-end, human (from UniProt P04626)
relative phosphorylation
Conditions	at +1	at +2	at +3	at +4	at +5	at -1	at -2	at -3	at -4	at -5
A fixed	0.734	0.684	0.603	0.869	1.51	0.72	0.953	0.764	0.972	0.899
D fixed	0.56	1.04	0.571	0.774	0.521	1.88	1.26	1.48	1.19	1.04
E fixed	0.87	1.19	0.493	0.79	0.575	1.91	1.58	1.88	1.41	0.983
F fixed	1.73	1.58	2.19	1.09	0.958	1.12	0.99	1.27	1.02	1.06
G fixed	0.526	0.504	0.621	0.943	1.06	0.567	1.15	1	1.2	1.12
H fixed	1.18	0.884	0.867	1.02	1.61	0.846	0.936	0.855	0.872	1.04
I fixed	1.5	0.984	1.86	0.764	0.878	1.62	0.932	0.726	0.985	0.909
K fixed	0.462	0.78	0.474	0.991	0.87	0.476	0.674	0.659	0.834	0.992
L fixed	1.53	0.938	1.51	0.8	1.13	1.28	0.973	0.963	0.994	1.06
M fixed	1.17	0.924	1.26	1.23	1.25	0.986	0.837	0.937	0.959	1.01
N fixed	0.59	1.03	0.65	0.843	0.667	1.07	1.08	1.1	1.01	1.14
P fixed	0.395	0.714	0.72	1.18	1	0.617	0.922	0.795	0.924	0.987
Q fixed	0.923	1.02	0.821	0.959	0.679	0.849	1.07	0.876	1.17	1.04
R fixed	0.555	0.837	0.669	1.18	1.28	0.506	0.825	0.824	0.952	1.03
S fixed	0.757	0.928	0.608	0.808	0.849	0.693	0.921	0.989	0.851	0.887
T fixed	0.943	0.874	0.68	0.844	0.944	0.811	0.966	0.948	0.761	0.883
V fixed	2	0.98	1.26	0.807	1.08	1.3	1.03	0.851	0.814	0.915
W fixed	1.59	2.12	2.14	2.11	1.14	0.748	0.91	1.08	1.1	0.991
pThr fixed	1.22	1.36	0.495	0.755	0.514	1.99	1.7	1.7	1.26	1.14
pTyr fixed	6.36	3.29	0.953	0.93	0.82	3.1	1.62	2.2	1.91	1.25

ERBB4, construct: aa682-993, human (from UniProt Q15303)
relative phosphorylation
Conditions	at +1	at +2	at +3	at +4	at +5	at -1	at -2	at -3	at -4	at -5
A fixed	1	0.674	0.487	0.87	1.07	0.611	1.41	0.86	1.34	1.06
D fixed	0.859	1.43	0.443	0.917	0.946	2.49	1.76	1.84	1.36	1.25
E fixed	1.87	2.03	0.446	1.07	0.98	2.43	2.11	2.33	1.62	1.1
F fixed	1.07	1.32	2.24	1.18	1.25	0.62	0.599	0.925	1.12	1.08
G fixed	0.413	0.375	0.427	1.13	1.14	0.519	1.04	0.941	1.09	0.998
H fixed	0.893	0.725	0.757	0.987	0.865	0.81	0.877	0.81	0.757	1
I fixed	1.93	1.14	2.4	0.846	0.858	1.96	0.757	0.647	0.789	0.823
K fixed	0.252	0.401	0.211	0.647	0.903	0.297	0.514	0.691	0.733	0.913
L fixed	1.03	0.97	1.97	0.758	1.01	1.21	0.826	0.859	0.931	0.936
M fixed	1.12	0.975	1.43	0.922	0.959	0.876	0.57	0.842	0.757	0.892
N fixed	0.453	0.909	0.439	0.635	0.757	1.24	1.08	1.37	0.863	1.16
P fixed	0.345	0.691	0.616	1.28	1.49	0.503	1.22	0.964	1.14	0.907
Q fixed	1.09	0.79	0.475	0.838	0.757	0.955	1.12	0.962	1.45	1.23
R fixed	0.318	0.58	0.328	0.769	0.864	0.333	0.508	0.602	0.65	0.897
S fixed	0.678	0.839	0.6	1.06	1.13	0.506	1.03	0.981	0.882	0.903
T fixed	1.1	1.05	0.563	0.87	1.02	1.01	0.872	0.924	0.537	0.79
V fixed	2.46	1.2	1.46	0.93	0.911	1.11	1.16	0.697	0.836	0.815
W fixed	1.11	1.9	2.71	2.28	1.09	0.522	0.541	0.759	1.13	1.25
pThr fixed	2.75	2.29	0.524	1.01	1.01	3.76	2.43	2.64	1.41	1.21
pTyr fixed	15.4	5.38	1.12	1.4	1.13	2.48	2.59	2.35	1.62	1.31
